Measured values reported in patent US8796183B2, “Template fixed beta-hairpin loop mimetics and their use in phage display” (Polyphor Ltd., priority 2003, dated 2014).
Positions of bridges follow the written chain, without caps; N, C: chain ends. No end group written: not given here.

Assay: Circular dichroism
Type: physicochemical
Settings: linear precursor of the compound (before disulfide bridge formation), 10^−4 M in water as TFA salt, room temperature (FIG. 7)
From the text: Circular dichroism measurements are sensitive to the secondary structure of both peptides and proteins and have been extensively used to examine the conformation of both (M. Jourdan, S. R. Griffiths-Jones, M. S. Searle, Eur. J. Biochem. 2000, 267, 3539-3548; J. T. Pelto, L. R. Mc. Lean, Analytical Biochemistry, 2000, 277, 167-176).
Circular Dichroism spectra were obtained on a Jasco J-715 spectropolarimeter, equipped with a spectra manager for windows 95/NT. Version 1.52.01 [Build2]. All measurements were performed at room temperature in quartz cells of 0.1 cm path length in water. Spectra were recorded with a 1 nm bandwidth, five scans were collected to improve the signal-to-noise ratio and the solvent baseline was recorded and subtracted from the spectra of the samples. All CD spectra were smoothed (with the same value), and are reported as molecular ellipticity units (Mol. Ellip.) of peptide residue.
Measurement parameters: Band width: 1.0 nm, response: 1 s, sensitivity: standard, measurement range: 240-190 nm, data pitch: 0.5 nm, scanning speed: 50 nm/min. Concentration of the linear deprotected, purified peptide solutions: 10^−4 M in water as TFA salts. The pH and purity of the linear deprotected, purified peptides as precursors of the following examples were: Example 3: pH 6.38, purity 91%; Example 4: pH 6.77, purity 89%; Example 5: pH 6.01, purity 98%; Example 9: pH 6.00, purity 94%.

Row | Substance | CD-spectrum: secondary structure content
1 | Example 3: Ac-NH-Cys-Thr-Lys-Trp-Phe-Ser-Asn-His-Tyr-Gln-Thr-Cys-H, cysteines linked by a disulfide bridge; reference not having a template (Ac-CTKWFSNHYQTC; disulfide 1-12 (inferred); also: C-terminus written as -H) | mixture of a coil structure and a β-sheet structure
2 | Example 4: Ac-NH-Glu-Thr-Cys-Thr-Lys-Trp-Phe-Ser-Asn-His-Tyr-Gln-Thr-Cys-Thr-Lys-H, cysteines linked by a disulfide bridge (Ac-ETCTKWFSNHYQTCTK; disulfide 3-14 (inferred); also: C-terminus written as -H) | high content of a β-sheet structure
3 | Example 5: Ac-NH-Cys-Thr-Lys-Trp-Phe-Leu-Ala-His-Tyr-Ala-Thr-Cys-H, cysteines linked by a disulfide bridge; reference not having a template (Ac-CTKWFLAHYATC; disulfide 1-12 (inferred); also: C-terminus written as -H) | high content of coil- and α-helix structure and traces of a β-sheet structure
4 | Example 9: Ac-NH-Glu-Thr-Cys-Thr-Lys-Trp-Phe-Leu-Ala-His-Tyr-Ala-Thr-Cys-Thr-Lys-H, cysteines linked by a disulfide bridge (Ac-ETCTKWFLAHYATCTK; disulfide 3-14 (inferred); also: C-terminus written as -H) | high content of β-sheet structure and a β-turn structure
